Laboratory results from patent US9803013B2, “Biological materials and uses thereof” (BioInvent International AB, priority 2005, dated 2017).

Tests used:
[1] = test system: Daudi B cell lymphoma xenografts; experiment: SCID/Daudi B cell lymphoma subcutaneous xenograft model; settings: one day following tumor cell injection or established tumors
ICAM-1 = ICAM-1 (Homo sapiens, UniProt P05362); experiment: Binding to recombinant ICAM-1 (ELISA)
Description: FIG. 12C BI-505 binds specifically to ICAM-1. (a) Pre-incubation with recombinant ICAM-1, but not VCAM, blocks BI-505 binding to targeted tumor B cells.
(FIG. 21A) BI-505 IgG1, IgG4 and IgG1 N297Q antibodies were analyzed for binding to recombinant ICAM-1 by ELISA.

U266 myeloma cells = experiment: NK-cell deficient NOD/Shi-scid/IL-2Rγ−/− mouse model; assay type: in vivo; settings: U266 grafted to NOD/Shi-scid/IL-2Rγ−/− mice
Description: (FIG. 20F) Animal survival following BI-505 or control antibody treatment in a disseminated NK-cell deficient NOD/Shi-scid/IL-2Rγ^−/− mouse model comprising i.v. grafted U266 myeloma cells. ***p<0.001.
Six-eight weeks-old female NOD/Shi-scid IL-2Rγ^−/− mice were obtained from Taconic, Denmark. Five million (5×10^6) RPMI-8226 or U266 tumor cells in 200 μL of RPMI 1640 were intravenously injected into the caudal vein (day 0). The tumor cell injection was performed 2 hr after whole body irradiation of mice (1.5 Gy, Cesium 137, IBL 637). At day 4, mice were randomized into 6 groups and treatment was initiated according to the schedule below.

[2] = test system: primary patient's MM cells; experiment: Macrophage ADCP; assay type: cell-based; settings: human macrophages
Description: (§1) Cultured macrophages were detached and plated in flat 96-well plates at 50 000 cells/well and placed in 37° C. CFSE-stained target cells were incubated with antibodies for up to 1 hr on ice. After washing, the different cell solutions were added to the culture plates containing macrophages at a ratio of 5:1 (Target cells:Macrophages). Thereafter, the culture plates were incubated at 37° C. for 1-2 hr (primary patient MM cells) or 16 hr (RPMI-8226 cells). The percentage of macrophages that had phagocytosed tumor cells (CFSE^+, CD206^+) per total analyzed macrophages was determined following gating and acquisition of 5000 CD206^+ cells/sample.
(§2) Buffy coats from healthy human donors were ordered through the local blood central at Lund University Hospital and Halmstad Hospital. Peripheral blood mononuclear cells (PBMCs) were first extracted using Ficoll-Paque PLUS (GE Healthcare Life Sciences), followed by isolation of monocytes with CD14 MicroBeads and MACS separation (Miltenyi Biotec). The monocytes were cultured in RPMI 1640 medium with 10% heat-inactivated FBS (Invitrogen) and 25 ng/mL of recombinant human M-CSF (R&D Systems) for 6-14 days, causing differentiation into macrophages. Medium with M-CSF was changed every 2-3 days upon initiation of cultures.
(§3) RPMI-8226 cells (ATCC) were continuously cultured in RPMI 1640 medium supplemented with 10 mM HEPES, 1 mM sodium pyruvate and 10% FBS. For multiple myeloma cells, freshly isolated bone marrow samples were donated by patients at Lund University Hospital and subsequently processed with Ficoll-Paque PLUS. Negative isolation of malignant plasma cells was then performed using the Plasma Cell Isolation Kit II according to the manufacturer's instructions (Miltenyi Biotec).
(§4) At least 4 h before co-culture with target cells the cultured macrophages were detached with Accutase (Sigma Aldrich), before plated in flat 96-well plates at 50 000 cells/well and placed in 37° C. […] After washing, the different cell solutions were added to the culture plates containing macrophages at a ratio of 5:1 (Target cells:Macrophages). Thereafter, the culture plates were incubated at 37° C. for 1-2 hr (primary patient MM cells) or 16 hr (RPMI-8226 cells). Next, samples were stained with APC-conjugated anti-CD206 antibody (BD Biosciences), before harvested by scraping the culture plate wells. The resulting cell solutions were then analyzed by flow cytometry, where CD206^+ macrophages were gated and acquired at 5000 cells/sample. A cut-off level identifying CFSE^+, CD206^+ double positive (phagocytic) macrophages was set for each experimental sample series. This level differed between the individual assays since the magnitude of basic (unstimulated) phagocytosis varied (different donors and time-points) among the experiments.

RPMI-8226 cells = experiment: Macrophage ADCP; assay type: cell-based; settings: RPMI-8226, human macrophages
Description: as §1, §2, §3, §4

[3] = test system: LS174 T colorectal carcinoma; experiment: IgG binding to tumour cell line, flow cytometry; parameters: species or system human; settings: compared to the prostate cancer cells
Source text: (§5) FIG. 6—Binding of B1, B11, C11 IgG, to tumour cell lines of different origin. The antigen distribution of antigens targeted by the B1, B11, and C11 antibodies on different carcinoma cell lines was investigated by flow-cytometry.
(§6) The antigen distribution of human antibody targeted antigens, mainly for B11, on different carcinoma cell lines was investigated. Cells (MCF-7 and MDA MB 435S breast carcinoma, JAR and JEG-3 chorio-carcinoma, A549 lung carcinoma, TCC-SUP urinary bladder carcinoma, MDA MB 435 melanoma, HPAC, PANC-1 and BxPC-3 pancreatic carcinoma, PC-3 and DU145 prostate carcinoma, LS174 T, CaCo2, and Lovo colorectal carcinoma, and THP-1 monocytic leukaemia cells), were washed in PBS, and resuspended at 4×10^6 cells/ml in Complete Medium (200,000 cells/50 […] sample). […] Cells were incubated with either of the antibodies for 1 hour on ice, washed by resuspension in PBS/BSA 0.5%, centrifuged at 1200 rpm for 5 min, and complete aspiration of the supernatants was undertaken. Cells were incubated with PE-conjugated Goat F(ab′)2 anti-Human IgG (Caltag Laboratories, Cat no: H10104), diluted 1/50 in PBS/BSA 0.5%, for 30 min, on ice. Following resuspension of in 300 μl PBS/BSA 0.5%, cells were analysed for IgG binding using a FACScan instrument.

MCF-7 breast carcinoma = experiment: IgG binding to tumour cell line, flow cytometry; parameters: species or system human; settings: MCF-7, compared to the prostate cancer cells
Source text: as §5, §6

[4] = test system: HPAC pancreatic carcinoma; experiment: IgG binding to tumour cell line, flow cytometry; parameters: species or system human; settings: compared to the prostate cancer cells
Source text: as §5, §6

[5] = test system: mouse, rat, rabbit, and cynomolgus monkey ICAM-1; experiment: BI-505 cross-reactivity to ICAM-1 of animal species used for toxicological studies; assay type: binding; settings: animals commonly used for toxicological evaluation
Source text: The cross reactivity of BI-505 to mouse, rat, rabbit, and cynomolgus monkey ICAM-1 was investigated using several methods (i.e. immunohistochemistry, flow cytometry, and enzyme-linked immunosorbent assay [ELISA]) and sources of target protein (tissue, ICAM-1 transfected cells, endogenous ICAM-1 expressing cells, and recombinant ICAM-1 protein). Polyclonal anti-mouse ICAM-1, anti-rat ICAM-1, anti-rabbit ICAM-1, and anti-cynomolgus ICAM-1 antibodies were used as positive controls in experiments. Isotype control human IgG1 was used as negative control for BI-505 and species matched polyclonal IgG lacking specificity for ICAM-1 served as negative controls for ICAM-1 specific polyclonal antibodies.

Sequence of ICAM-1 (P05362 28-532): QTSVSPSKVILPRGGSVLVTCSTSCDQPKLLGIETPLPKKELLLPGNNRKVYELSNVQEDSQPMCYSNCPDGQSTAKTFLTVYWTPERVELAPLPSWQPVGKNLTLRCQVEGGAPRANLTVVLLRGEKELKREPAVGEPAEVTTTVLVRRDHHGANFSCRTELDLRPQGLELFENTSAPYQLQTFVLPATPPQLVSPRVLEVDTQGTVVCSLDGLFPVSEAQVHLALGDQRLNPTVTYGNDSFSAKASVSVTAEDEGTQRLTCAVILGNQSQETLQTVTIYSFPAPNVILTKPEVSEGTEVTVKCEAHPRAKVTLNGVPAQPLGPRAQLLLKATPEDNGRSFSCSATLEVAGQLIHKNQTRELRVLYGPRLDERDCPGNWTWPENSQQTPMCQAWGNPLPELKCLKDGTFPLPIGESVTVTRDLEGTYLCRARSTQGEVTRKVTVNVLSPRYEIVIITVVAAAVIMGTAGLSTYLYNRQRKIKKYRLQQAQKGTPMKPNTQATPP

B1: B11: fully human IgG1 antibody specific for ICAM-1; VH and VL sequences of FIG. 10 (SEQ ID NOs. 6 and 8) (antibody, listed as Homo sapiens, V domains shown)
VH: EVQLLESGGGLVQPGGSLRLSCAASGFTFSNAWMSWVRQAPGKGLEWVAFIWYDGSNKYYADSVKGRFTISRDNSKNTLYLQMNSLRAEDTAVYYCARYSGWYFDYWGQGTLVTVSS
VL: QSVLTQPPSASGTPGQRVTISCTGSSSNIGAGYDVHWYQQLPGTAPKLLIYDNNNRPSGVPDRFSGSKSGTSASLAISGLRSEDEADYYCQSYDSSLSAWLFGGGTKLTVLG
[1]
  survival: prolonged survival
  tumor growth: significantly prevented tumor growth
ICAM-1
  binding to recombinant protein: binds dose-dependently
U266 myeloma cells
  antitumor activity: significant antitumor activity
[2]
  ADCP: conferred ADCP
RPMI-8226 cells
  ADCP: conferred ADCP
[3]
  binding / ICAM-1 expression: lower intensity
MCF-7 breast carcinoma
  binding / ICAM-1 expression: lower intensity
[4]
  binding / ICAM-1 expression: lower intensity
[5]
  cross-reactivity with animal ICAM-1: does not, however, cross-react
